{
  "source": "patent US20190135928A1",
  "about": "(Bristol-Myers Squibb, published 2019)",
  "assay_in_all_cases": "cell-based or functional assay",
  "key": {"[1]": {"target": "T1, human TL1A (in-house) (human, UniProt O95150 57-251, limits assumed)", "T1 sequence": "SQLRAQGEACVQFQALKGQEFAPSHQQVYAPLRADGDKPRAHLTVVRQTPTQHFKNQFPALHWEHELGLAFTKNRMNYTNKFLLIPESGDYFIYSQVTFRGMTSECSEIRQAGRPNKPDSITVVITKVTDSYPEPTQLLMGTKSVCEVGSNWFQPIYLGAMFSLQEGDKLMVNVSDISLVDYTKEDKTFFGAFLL"}, "[2]": {"target": "T1, human TL1A (in-house)", "remark": "listed apart in the source"}, "[3]": {"target": "T2, cynomolgus TL1A (in-house) (cynomolgus monkey, UniProt G7PRK8 57-251)", "T2 sequence": "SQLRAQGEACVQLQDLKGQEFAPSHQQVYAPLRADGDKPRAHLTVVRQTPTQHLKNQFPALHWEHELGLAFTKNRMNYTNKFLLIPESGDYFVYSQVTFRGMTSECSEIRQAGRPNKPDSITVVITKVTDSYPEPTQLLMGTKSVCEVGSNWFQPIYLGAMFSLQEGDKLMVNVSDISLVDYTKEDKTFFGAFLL"}, "[4]": {"target": "T3, TL1A expressed on transfected CHO cells (Homo sapiens (Human), UniProt O95150 1-251)", "T3 sequence": "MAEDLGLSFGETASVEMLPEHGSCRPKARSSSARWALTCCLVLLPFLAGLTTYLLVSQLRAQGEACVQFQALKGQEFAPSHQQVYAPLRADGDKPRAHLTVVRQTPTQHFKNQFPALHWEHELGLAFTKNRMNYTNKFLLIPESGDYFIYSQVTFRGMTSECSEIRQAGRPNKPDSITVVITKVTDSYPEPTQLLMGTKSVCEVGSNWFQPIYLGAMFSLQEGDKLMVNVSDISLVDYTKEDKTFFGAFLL"}, "[5]": {"target": "T1, human TL1A (in-house)", "remark": "listed apart in the source"}, "[6]": {"target": "T1, human TL1A (in-house)", "remark": "listed apart in the source"}, "[7]": {"target": "T1, human TL1A (in-house)", "remark": "listed apart in the source"}},
  "data": [
    {"binder": "TL1A antibody 10A4.F7.2E8 huIgG4 (antibody, V domains shown) VH: QLQLQESGPGLVKPSETLSLTCTVSGGSISSRSYYWGWIRQPPGKGLEWIGSIYYNGRTYYNPSLKSRVTISVDTSKNQFSLKLSSVTAADTAVYYCAREDYGDYGAFDIWGQGTMVTVSS VL: AIQLTQSPSSLSASVGDRVTITCRASQGISSALAWYQQKPGKAPKLLIYDASSLESGVPSRFSGSGSGTDFTLTISSLQPEDFATYYCQQFNSYPLTFGGGTKVEIKR", "values": [
      {"measurement": "EC50, TL1A + IL-12 + IL-18 driven IFNg (Hu PBMCs) (5.9 mg/ml), Donor A, ELN ref 99932-005481", "setting": "[1]", "result": 295, "unit": "pM"},
      {"measurement": "EC50, TL1A + IL-12 + IL-18 driven IFNg (Hu PBMCs) (5.9 mg/ml), Donor B, ELN ref 99932-005481", "setting": "[1]", "result": 241, "unit": "pM"},
      {"measurement": "EC50, TL1A-driven phospho-NFkB in Hu Whole Blood(2.45 mg/ml), CD3+CD4-CD8- T-cells, Donor A, no ELN ref printed in this row", "setting": "[2]", "result": 830, "unit": "pM"},
      {"measurement": "EC50, TL1A-driven phospho-NFkB in Hu Whole Blood(2.45 mg/ml), CD4+ T-cells, Donor A, ELN ref A010F-003", "setting": "[2]", "result": 2640, "unit": "pM"},
      {"measurement": "EC50, TL1A-driven phospho-NFkB in Hu Whole Blood(2.45 mg/ml), CD4+ T-cells, Donor A, ELN ref A010F-007", "setting": "[2]", "result": 770, "unit": "pM"},
      {"measurement": "EC50, TL1A-driven phospho-NFkB in Hu Whole Blood(2.45 mg/ml), CD4+ T-cells, Donor B, ELN ref A010F-003", "setting": "[2]", "result": 2940, "unit": "pM"},
      {"measurement": "EC50, TL1A-driven phospho-NFkB in Hu Whole Blood(2.45 mg/ml), CD4+ T-cells, Donor B, ELN ref A010F-007", "setting": "[2]", "result": 3240, "unit": "pM"},
      {"measurement": "EC50, TL1A-driven phospho-NFkB in Hu Whole Blood(2.45 mg/ml), CD8+ T-cells, Donor A, no ELN ref printed in this row", "setting": "[2]", "result": 850, "unit": "pM"},
      {"measurement": "EC50, TL1A + IL-12 + IL-18 driven IFNg (Cyno PBMCs)(2.45 mg/ml), Donor A, ELN ref 97305-067", "setting": "[3]", "result": 122, "unit": "pM"},
      {"measurement": "EC50, TL1A + IL-12 + IL-18 driven IFNg (Cyno PBMCs)(2.45 mg/ml), Donor A, ELN ref 97305-071", "setting": "[3]", "result": 154, "unit": "pM"},
      {"measurement": "EC50, TL1A + IL-12 + IL-18 driven IFNg (Cyno PBMCs)(2.45 mg/ml), Donor A, ELN ref 97305-074", "setting": "[3]", "result": 105, "unit": "pM"},
      {"measurement": "EC50, TL1A + IL-12 + IL-18 driven IFNg (Cyno PBMCs)(2.45 mg/ml), Donor A, ELN ref 97305-076", "setting": "[3]", "result": 97, "unit": "pM"},
      {"measurement": "EC50, TL1A + IL-12 + IL-18 driven IFNg (Cyno PBMCs)(2.45 mg/ml), Donor B, ELN ref 97305-067", "setting": "[3]", "result": 164, "unit": "pM"},
      {"measurement": "EC50, TL1A + IL-12 + IL-18 driven IFNg (Cyno PBMCs)(2.45 mg/ml), Donor B, ELN ref 97305-071", "setting": "[3]", "result": 133, "unit": "pM"},
      {"measurement": "EC50, TL1A + IL-12 + IL-18 driven IFNg (Cyno PBMCs)(2.45 mg/ml), Donor B, ELN ref 97305-074", "setting": "[3]", "result": 129, "unit": "pM"},
      {"measurement": "EC50, TL1A + IL-12 + IL-18 driven IFNg (Cyno PBMCs)(2.45 mg/ml), Donor B, ELN ref 97305-076", "setting": "[3]", "result": 93, "unit": "pM"},
      {"measurement": "EC50, TL1A-expressing CHO cells + IL-12 + IL-18 driven IFNg (Hu PBMCs)(2.45 mg/ml), Donor A, ELN ref 97305-034", "setting": "[4]", "result": 234, "unit": "pM"},
      {"measurement": "EC50, TL1A-expressing CHO cells + IL-12 + IL-18 driven IFNg (Hu PBMCs)(2.45 mg/ml), Donor B, ELN ref 97305-034", "setting": "[4]", "result": 214, "unit": "pM"},
      {"measurement": "EC50, TL1A + IL-12 + IL-18 driven IFNg (Hu WB)(2.45 mg/ml), Donor A, ELN ref 97305-029", "setting": "[5]", "result": 320, "unit": "pM"},
      {"measurement": "EC50, TL1A + IL-12 + IL-18 driven IFNg (Hu WB)(2.45 mg/ml), Donor A, ELN ref 97305-033", "setting": "[5]", "result": 284, "unit": "pM"},
      {"measurement": "EC50, TL1A + IL-12 + IL-18 driven IFNg (Hu WB)(2.45 mg/ml), Donor B, ELN ref 97305-029", "setting": "[5]", "result": 540, "unit": "pM"},
      {"measurement": "EC50, TL1A + IL-12 + IL-18 driven IFNg (Hu WB)(2.45 mg/ml), Donor B, ELN ref 97305-033", "setting": "[5]", "result": 108, "unit": "pM"},
      {"measurement": "EC50, TL1A + IL-12 + IL-18 driven IFNg (Hu NKcells)(2.45 mg/ml), Donor A, ELN ref 97305-070", "setting": "[6]", "result": 160, "unit": "pM"},
      {"measurement": "EC50, TL1A + IL-12 + IL-18 driven IFNg (Hu NKcells)(2.45 mg/ml), Donor A, ELN ref 97305-075", "setting": "[6]", "result": 147, "unit": "pM"},
      {"measurement": "EC50, TL1A + IL-12 + IL-18 driven IFNg (Hu NKcells)(2.45 mg/ml), Donor B, ELN ref 97305-070", "setting": "[6]", "result": 253, "unit": "pM"},
      {"measurement": "EC50, TL1A + IL-12 + IL-18 driven IFNg (Hu NKcells)(2.45 mg/ml), Donor B, ELN ref 97305-075", "setting": "[6]", "result": 162, "unit": "pM"},
      {"measurement": "EC50, TL1A + IL-12 + IL-18 driven IFNg (Hu PBMCs) (2.45 mg/ml), Donor A, ELN ref 97305-032", "setting": "[7]", "result": 131, "unit": "pM"},
      {"measurement": "EC50, TL1A + IL-12 + IL-18 driven IFNg (Hu PBMCs) (2.45 mg/ml), Donor A, ELN ref 97305-037", "setting": "[7]", "result": 138, "unit": "pM"},
      {"measurement": "EC50, TL1A + IL-12 + IL-18 driven IFNg (Hu PBMCs) (2.45 mg/ml), Donor A, ELN ref 97305-040", "setting": "[7]", "result": 167, "unit": "pM"},
      {"measurement": "EC50, TL1A + IL-12 + IL-18 driven IFNg (Hu PBMCs) (2.45 mg/ml), Donor A, ELN ref 97305-041", "setting": "[7]", "result": 209, "unit": "pM"},
      {"measurement": "EC50, TL1A + IL-12 + IL-18 driven IFNg (Hu PBMCs) (2.45 mg/ml), Donor A, ELN ref 97305-044", "setting": "[7]", "result": 272, "unit": "pM"},
      {"measurement": "EC50, TL1A + IL-12 + IL-18 driven IFNg (Hu PBMCs) (2.45 mg/ml), Donor A, ELN ref 97305-047", "setting": "[7]", "result": 95, "unit": "pM"},
      {"measurement": "EC50, TL1A + IL-12 + IL-18 driven IFNg (Hu PBMCs) (2.45 mg/ml), Donor A, ELN ref 97305-050", "setting": "[7]", "result": 209, "unit": "pM"},
      {"measurement": "EC50, TL1A + IL-12 + IL-18 driven IFNg (Hu PBMCs) (2.45 mg/ml), Donor A, ELN ref 97305-061", "setting": "[7]", "result": 260, "unit": "pM"},
      {"measurement": "EC50, TL1A + IL-12 + IL-18 driven IFNg (Hu PBMCs) (2.45 mg/ml), Donor A, ELN ref 99932-005481", "setting": "[7]", "result": 301, "unit": "pM"},
      {"measurement": "EC50, TL1A + IL-12 + IL-18 driven IFNg (Hu PBMCs) (2.45 mg/ml), Donor B, ELN ref 97305-032", "setting": "[7]", "result": 197, "unit": "pM"},
      {"measurement": "EC50, TL1A + IL-12 + IL-18 driven IFNg (Hu PBMCs) (2.45 mg/ml), Donor B, ELN ref 97305-037", "setting": "[7]", "result": 289, "unit": "pM"},
      {"measurement": "EC50, TL1A + IL-12 + IL-18 driven IFNg (Hu PBMCs) (2.45 mg/ml), Donor B, ELN ref 97305-040", "setting": "[7]", "result": 146, "unit": "pM"},
      {"measurement": "EC50, TL1A + IL-12 + IL-18 driven IFNg (Hu PBMCs) (2.45 mg/ml), Donor B, ELN ref 97305-041", "setting": "[7]", "result": 283, "unit": "pM"},
      {"measurement": "EC50, TL1A + IL-12 + IL-18 driven IFNg (Hu PBMCs) (2.45 mg/ml), Donor B, ELN ref 97305-044", "setting": "[7]", "result": 211, "unit": "pM"},
      {"measurement": "EC50, TL1A + IL-12 + IL-18 driven IFNg (Hu PBMCs) (2.45 mg/ml), Donor B, ELN ref 97305-047", "setting": "[7]", "result": 185, "unit": "pM"},
      {"measurement": "EC50, TL1A + IL-12 + IL-18 driven IFNg (Hu PBMCs) (2.45 mg/ml), Donor B, ELN ref 97305-050", "setting": "[7]", "result": 163, "unit": "pM"}
    ]}
  ]
}
